From patent publication US5162210A, “Process for enzymatic hydrolysis of starch to glucose” (Iowa State University Research Foundation, priority 1990, dated 1992) come the findings set out here.

What all share (test): purified protein, by the assay type
Common to all, as to details: other: 45 C., pH 4.5, 0.05M sodium acetate buffer

Substrate in data set [1]: OC[C@H]1O[C@H](O[C@H]2[C@H](O)[C@@H](O)[C@H](O)O[C@@H]2CO)[C@H](O)[C@@H](O)[C@@H]1O
Substrate in data set [2]: OC[C@H]1O[C@H](OC[C@H]2OC(O)[C@H](O)[C@@H](O)[C@@H]2O)[C@H](O)[C@@H](O)[C@@H]1O
Substrate in data set [3]: OC[C@H]1O[C@H](O[C@H]2[C@H](O)[C@@H](O)[C@@H](O[C@H]3[C@H](O)[C@@H](O)[C@@H](O[C@H]4[C@H](O)[C@@H](O)[C@@H](O[C@H]5[C@H](O)[C@@H](O)[C@@H](O[C@H]6[C@H](O)[C@@H](O)[C@@H](O[C@H]7[C@H](O)[C@@H](O)C(O)O[C@@H]7CO)O[C@@H]6CO)O[C@@H]5CO)O[C@@H]4CO)O[C@@H]3CO)O[C@@H]2CO)[C@H](O)[C@@H](O)[C@@H]1O

B1: Aspergillus awamori glucoamylase variant Ser184→His (Ser→His184, S→H184) (Aspergillus awamori; S208H) (protein)
chain: ATLDSWLSNEATVARTAILNNIGADGAWVSGADSGIVVASPSTDNPDYFYTWTRDSGLVLKTLVDLFRNGDTSLLSTIENYISAQAIVQGISNPSGDLSSGAGLGEPKFNVDETAYTGSWGRPQRDGPALRATAMIGFGQWLLDNGYTSTATDIVWPLVRNDLSYVAQYWNQTGYDLWEEVNGHSFFTIAVQHRALVEGSAFATAVGSSCSWCDSQAPEILCYLQSFWTGSFILANFDSSRSGKDANTLLGSIHTFDPEAACDDSTFQPCSPRALANHKEVVDSFRSIYTLNDGLSDSEAVAVGRYPEDTYYNGNPWFLCTLAAAEQLYDALYQWDKQGSLEVTDVSLDFFKALYSDAATGTYSSSSSTYSSIVDAVKTFADGFVSIVETHAASNGSMSEQYDKSDGEQLSARDLTWSYAALLTANNRRNSVVPASWGETSASSVPGTCAATSAIGTYSSVTVTSWPSIVATGGTTTTATPTGSGSVTSTSKTTATASKTSTSTSSTSCTTPTAVAVTFDLTATTTYGENIYLVGSISQLGDWETSDGIALSADKYTSSDPLWYVTVTLPAGESFEYKFIRIESDDSVEWESDPNREYTVPQACGTSTATVTDTWR
As for B1, the Michaelis-Menten constant (Km) in data set [1] turned out to be 900 µM; in data set [2], 26700 µM; in data set [3], 140 µM.
